Consider one protein from PMC10307625, “Inhibiting membrane rupture with NINJ1 antibodies limits tissue injury” (Nature, 2023).

The series deals with the molecule itself. As to the kind of experiment: SEC; purified Flag–NINJ1 alone on Superose 6 Increase 10/300 GL; 20 mM HEPES pH 7.5, 150 mM NaCl, 0.005% LMNG, 0.0005% CHS; peak at 8.5 ml retention volume.

B1: N-terminally Flag-tagged mouse NINJ1 (natural protein, UniProt O70131 1-152, looked up)
chain: MESGTEEYELNGDLRPGSPGSPDALPPRWGLRNRPINVNHYANKKSAAESMLDIALLMANASQLKAVVEQGNDFAFFVPLVVLISISLVLQIGVGVLLIFLVKYDLNNPAKHAKLDFLNNLATGLVFIIVVVNIFITAFGVQKPVMDVAPRQ
notes: NINJ1 (ninjurin-1), mouse, expressed from pRK-Flag-mNINJ1; Membrane protein solubilised in 1% LMNG / 0.1% CHS; the oligomer size is heterogeneous and no copy number is told; also called Flag–NINJ1; recombinant NINJ1; source: Expi293F cells, transiently transfected, purified (anti-Flag M2 resin, Superose 6 SEC) in LMNG/CHS; not shown: FLAG, N-terminal, kept
As for B1, the binding result is on record as “binds”.
